The text below walks through data of patent US20150329597A1.

The term Kd denotes the equilibrium constant for the complex coming apart. Low readings indicate higher affinity, high ones lower affinity. For orientation: koff means the first-order rate constant of dissociation. The term kon denotes the rate constant with which the complex forms. Low values mean slow association, high ones fast association.

For assay [1], the target named is RSV F monomer (uncleaved RSV F Delp23 Furdel; Delp23 Furdel Truncated HIS construct) (respiratory syncytial virus). Description: SPR (BIAcore), D25 Fab immobilised on CM5 chip, F monomer as analyte, 1:1 fit.
The target is the same in assay [2]. Description: analytical HPLC-SEC of F monomer with 1:1 molar D25 Fab; monomer alone ~11.5 min.
For assay [3] the target is unchanged. The assay can be described thus: preparatory SEC of F monomer with D25 Fab at 1:1 molar ratio; monomer alone ~1.4 mls.
Assay [4] addresses RSV F trimerized-monomer: RSV Monomer (Delp23 Furdel) + HRA peptide (respiratory syncytial virus). Description: preparatory SEC of the trimerized F fraction with about 10-fold excess D25 Fab; trimerized monomer alone ~1.2 mls.

In the case of “D25 Fab harboring a HIS-tag and Strep-tag”, in assay [1], the Kd came out at 0.053 nM, the koff worked out at 9.9e-06 s⁻¹ and the association rate constant (kon) is 190000 M⁻¹ s⁻¹. Moreover, the Retention Time Wyatt SEC WTC-030S5 (mixture) in assay [2] stood at 10.3 min. Also, the Retention Volume Micro-Superdex 200 (mixture) in assay [3] was 1.3 mls. Further, the Retention Volume Micro-Superdex 200 (mixture) in assay [4] turned out to be 1.1 mls.
